# Laboratory results reported in paper PMC9768917.
# Tests used:
# [1] = target: HALO-FhM28B (Fasciola hepatica M28B metalloprotease, wild type, with N-terminal His-Strep-HALO tag) (Fasciola hepatica); assay: SEC; final purification step on a Superose 6 column, 20 mM MOPS, 150 mM NaCl, pH 7.4; elution peak compared with the expected dimeric mass
# [2] = target: HALO-FhM28B (E413M) (Fasciola hepatica); assay: as above
Substance,stoichiometry N [1],stoichiometry N [2]
"HALO-FhM28B (Fasciola hepatica M28B metalloprotease, wild type, with N-terminal His-Strep-HALO tag) (enzyme)",2,
HALO-FhM28B (E413M) (enzyme),,2
